Reference: US20240034757A1 (OXFORD UNIVERSITY INNOVATION, published 2024)
Like-named read-outs stand apart in the source and are kept apart here.

What was measured:
CXCL11_HUMAN [1] = biological target: T1, CXCL11_HUMAN (human, UniProt O14625 22-94); experiment: yeast surface display FACS re-test; note: test concentration or dose not given here
T1 sequence: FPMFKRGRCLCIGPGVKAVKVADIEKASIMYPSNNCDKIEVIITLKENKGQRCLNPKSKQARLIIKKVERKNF

CXCL7_HUMAN = biological target: T2, CXCL7_HUMAN (human, UniProt P02775 59-128); experiment: BLI [Cont.]
T2 sequence: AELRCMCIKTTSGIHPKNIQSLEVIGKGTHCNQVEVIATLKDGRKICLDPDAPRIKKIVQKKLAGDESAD

CXCL8_HUMAN [2] = biological target: T3, CXCL8_HUMAN (human, UniProt P10145 28-99); experiment: BLI [Cont.]
T3 sequence: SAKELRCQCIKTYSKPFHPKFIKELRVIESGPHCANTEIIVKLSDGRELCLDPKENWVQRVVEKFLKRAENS

CXCL12_HUMAN = CXCL12_HUMAN (human, UniProt P48061 22-89); experiment: BLI
Chain of CXCL12_HUMAN (P48061 22-89 limits assumed): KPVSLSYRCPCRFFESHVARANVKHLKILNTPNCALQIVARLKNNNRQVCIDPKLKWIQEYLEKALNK

CXCL9_HUMAN = biological target: T4, CXCL9_HUMAN (human, UniProt Q07325 23-125); experiment: BLI
T4 sequence: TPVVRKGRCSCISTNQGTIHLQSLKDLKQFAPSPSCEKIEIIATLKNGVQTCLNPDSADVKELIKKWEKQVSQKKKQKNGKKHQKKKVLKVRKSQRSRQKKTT

CXCL14_HUMAN = biological target: T5, CXCL14_HUMAN (human, UniProt O95715 35-111); experiment: BLI
T5 sequence: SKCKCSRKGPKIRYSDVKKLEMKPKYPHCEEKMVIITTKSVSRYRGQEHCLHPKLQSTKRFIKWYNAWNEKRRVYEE

CXCL4_HUMAN = biological target: T6, CXCL4_HUMAN (human, UniProt P02776 32-101); experiment: BLI [Cont.]
T6 sequence: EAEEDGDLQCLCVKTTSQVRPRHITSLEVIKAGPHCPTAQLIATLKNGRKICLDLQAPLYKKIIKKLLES

CXCL8_HUMAN [3] = biological target: T3, CXCL8_HUMAN; experiment: yeast surface display FACS re-test; note: test concentration or dose not given here
CXCL6_HUMAN = biological target: T7, CXCL6_HUMAN (human, UniProt P80162 38-114); experiment: BLI [Cont.]
T7 sequence: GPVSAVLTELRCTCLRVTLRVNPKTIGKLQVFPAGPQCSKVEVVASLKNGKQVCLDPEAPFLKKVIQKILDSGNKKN

CXCL13_HUMAN = biological target: T8, CXCL13_HUMAN (human, UniProt O43927 23-109); experiment: BLI
T8 sequence: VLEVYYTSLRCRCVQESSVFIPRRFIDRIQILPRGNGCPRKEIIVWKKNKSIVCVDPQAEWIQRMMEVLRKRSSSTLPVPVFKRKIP

CXCL10_HUMAN [4] = biological target: T9, CXCL10_HUMAN (human, UniProt P02778 22-98); experiment: BLI
T9 sequence: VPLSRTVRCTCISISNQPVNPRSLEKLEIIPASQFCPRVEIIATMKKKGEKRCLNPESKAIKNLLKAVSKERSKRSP

CXCL10_HUMAN [5] = biological target: T9, CXCL10_HUMAN; experiment: yeast surface display FACS re-test; note: test concentration or dose not given here
P1243_AMBAM [6] = biological target: T10, P1243_AMBAM (Amblyomma americanum, UniProt A0A0C9S461 26-123); experiment: BLI
T10 sequence: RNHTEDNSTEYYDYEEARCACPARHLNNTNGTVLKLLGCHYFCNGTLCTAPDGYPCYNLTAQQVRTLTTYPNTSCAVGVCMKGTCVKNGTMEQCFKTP

P1183_AMBTR = biological target: T11, P1183_AMBTR (Amblyomma triste, UniProt A0A023G9N9 26-115); experiment: BLI
T11 sequence: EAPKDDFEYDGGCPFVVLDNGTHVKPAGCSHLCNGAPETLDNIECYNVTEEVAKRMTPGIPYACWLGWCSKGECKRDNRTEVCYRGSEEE

P983_AMBCA = biological target: T12, P983_AMBCA (Amblyomma cajennense, UniProt A0A023FFB5 22-119); experiment: BLI
T12 sequence: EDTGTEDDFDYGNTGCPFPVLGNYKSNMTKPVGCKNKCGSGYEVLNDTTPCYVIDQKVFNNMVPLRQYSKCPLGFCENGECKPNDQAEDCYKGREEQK

P1181_AMBMA = biological target: T13, P1181_AMBMA (Amblyomma maculatum, UniProt G3MIX6 26-115); experiment: BLI
T13 sequence: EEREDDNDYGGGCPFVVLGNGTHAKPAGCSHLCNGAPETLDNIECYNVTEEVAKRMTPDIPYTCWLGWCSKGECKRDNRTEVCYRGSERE

P1243_AMBAM [7] = biological target: T10, P1243_AMBAM; experiment: BLI; remark: listed apart in the source
P974_AMBCA = biological target: T14, P974_AMBCA (Amblyomma cajennense, UniProt A0A023FDY8 22-118); experiment: BLI
T14 sequence: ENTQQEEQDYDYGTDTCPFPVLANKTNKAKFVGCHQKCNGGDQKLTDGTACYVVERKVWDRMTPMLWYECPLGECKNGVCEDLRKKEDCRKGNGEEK

P546_AMBCA = biological target: T15, P546_AMBCA (Amblyomma cajennense, UniProt A0A023FBW7 22-118); experiment: BLI
T15 sequence: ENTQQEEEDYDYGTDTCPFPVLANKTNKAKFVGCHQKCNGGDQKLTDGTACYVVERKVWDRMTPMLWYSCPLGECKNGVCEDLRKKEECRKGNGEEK

P991_AMBCA = biological target: T16, P991_AMBCA (Amblyomma cajennense, UniProt A0A023FFD0 29-136); experiment: BLI
T16 sequence: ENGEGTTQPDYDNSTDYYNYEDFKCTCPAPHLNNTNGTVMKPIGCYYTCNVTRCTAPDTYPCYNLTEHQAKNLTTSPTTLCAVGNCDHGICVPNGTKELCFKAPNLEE

P672_RHIPU = biological target: T17, P672_RHIPU (Rhipicephalus pulchellus, UniProt L7MC74 22-125); experiment: BLI
T17 sequence: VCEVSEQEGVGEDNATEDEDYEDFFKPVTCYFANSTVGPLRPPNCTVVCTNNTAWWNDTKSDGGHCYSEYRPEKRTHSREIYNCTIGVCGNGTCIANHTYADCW

P985_AMBPA = biological target: T18, P985_AMBPA (Amblyomma parvum, UniProt A0A023FT45 25-132); experiment: BLI
T18 sequence: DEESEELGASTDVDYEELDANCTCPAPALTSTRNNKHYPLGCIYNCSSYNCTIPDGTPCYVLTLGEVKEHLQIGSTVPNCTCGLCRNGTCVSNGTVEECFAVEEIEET

P1180_AMBTR = biological target: T19, P1180_AMBTR (Amblyomma triste, UniProt A0A023G6B6 26-116); experiment: BLI
T19 sequence: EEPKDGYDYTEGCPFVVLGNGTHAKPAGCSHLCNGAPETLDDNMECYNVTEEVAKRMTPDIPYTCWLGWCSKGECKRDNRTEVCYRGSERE

P467_RHIPU = biological target: T20, P467_RHIPU (Rhipicephalus pulchellus, UniProt L7M8Z8 22-127); experiment: BLI
T20 sequence: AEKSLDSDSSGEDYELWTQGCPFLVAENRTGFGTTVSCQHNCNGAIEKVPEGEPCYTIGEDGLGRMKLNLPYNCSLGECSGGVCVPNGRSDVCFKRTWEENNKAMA

CXCL1_HUMAN = biological target: T21, CXCL1_HUMAN (human, UniProt P09341 35-107); experiment: yeast surface display FACS re-test; note: test concentration or dose not given here
T21 sequence: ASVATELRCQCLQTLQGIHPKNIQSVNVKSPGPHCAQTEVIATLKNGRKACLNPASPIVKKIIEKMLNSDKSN

CXCL11_HUMAN [8] = biological target: T1, CXCL11_HUMAN; experiment: BLI

B1: P675_IXORI (other)
chain: GSNQLSGPQSSANSNDAVFCDTNCTQGTDGAWSGCRGDCFCVHVGNSTEGRCIELIGDFDYSTPGAED
CXCL11_HUMAN [1]
  % cells over threshold fluorescence: 55%
CXCL7_HUMAN
  binding result: no binding (tested: 300 nM)
CXCL8_HUMAN [2]
  binding result: no binding (tested: 300 nM)
CXCL12_HUMAN
  binding result: no binding (tested: 300 nM)
CXCL9_HUMAN
  binding result: no binding (tested: 300 nM)
CXCL14_HUMAN
  binding result: no binding (tested: 300 nM)

B2: P1078_IXORI (other)
chain: GSKGSSAQQSSHDSIKAEFCETNCTMKTGGKWTQCHGGCFCVHVGNETVGRCIKLDGDYDYPSSKHEE
CXCL11_HUMAN [1]
  % cells over threshold fluorescence: 38%
CXCL7_HUMAN
  binding result: no binding (tested: 300 nM)
CXCL8_HUMAN [2]
  binding result: no binding (tested: 300 nM)
CXCL4_HUMAN
  binding result: no binding (tested: 300 nM)
CXCL12_HUMAN
  binding result: no binding (tested: 300 nM)
CXCL9_HUMAN
  binding result: no binding (tested: 300 nM)
CXCL14_HUMAN
  binding result: no binding (tested: 300 nM)

B3: P1174_IXORI (other)
chain: LNNENELFSVEYCGANCTQQDNGSWTKCKGNCTCYHEDGKRYGLCLSTEYTDFTQFPKPTSEEIADASPRPKETNSH
CXCL8_HUMAN [3]
  % cells over threshold fluorescence: 29%
CXCL6_HUMAN
  binding result: no binding (tested: 300 nM)
CXCL12_HUMAN
  binding result: no binding (tested: 300 nM)
CXCL13_HUMAN
  binding result: no binding (tested: 300 nM)
CXCL9_HUMAN
  binding result: no binding (tested: 300 nM)
CXCL10_HUMAN [4]
  binding result: no binding (tested: 300 nM)
CXCL14_HUMAN
  binding result: no binding (tested: 300 nM)

B4: P1074_IXORI (other)
chain: GSKESSAHQSSDDSIKAEFCDAKCTMKTDGKWTQCHGGCFCVHVGNETEGRCMRLDGDYDYPSTQPEE
CXCL11_HUMAN [1]
  % cells over threshold fluorescence: 33%
CXCL10_HUMAN [5]
  % cells over threshold fluorescence: 71%
CXCL7_HUMAN
  binding result: no binding (tested: 300 nM)
CXCL8_HUMAN [2]
  binding result: no binding (tested: 300 nM)
CXCL12_HUMAN
  binding result: no binding (tested: 300 nM)
CXCL14_HUMAN
  binding result: no binding (tested: 300 nM)

B5: P1101_IXORI (other)
chain: HTTVAGSDEDIEVSYCGMNCTVESGKSSKCSPDCVCVHEGNERDGICISITYLGDLGNPLEDPSIDLATPLAPVFQSSK
CXCL10_HUMAN [5]
  % cells over threshold fluorescence: 75%

B6: P1080_IXORI (other)
chain: SAGSKGSSAPQSSGDSVVAEFCDTNCTMKKDGKWTECNGDCFCVHVGNETVGRCMRLDGDYDYTSSKTTRRNKKTRNGLCRLDRNRTTVDYPERNTREP
CXCL11_HUMAN [1]
  % cells over threshold fluorescence: 45%
CXCL10_HUMAN [5]
  % cells over threshold fluorescence: 70%

B7: CCL7_HUMAN (ligand)
chain: not shown
P1243_AMBAM [6]
  Kd: 8.66 nM
P1183_AMBTR
  Kd: 5.4 nM
P983_AMBCA
  Kd: 32 nM
P1181_AMBMA
  Kd: 120 nM
P1243_AMBAM [7]
  Kd: 8.66 nM
P974_AMBCA
  Kd: 41.2 nM
P546_AMBCA
  Kd: 90 nM
P991_AMBCA
  Kd: 0.514 nM
P672_RHIPU
  Kd: 16 nM
P985_AMBPA
  Kd: 61 nM
P1180_AMBTR
  Kd: 98 nM
P467_RHIPU
  Kd: 2.15 nM

B8: P1168_IXORI (other)
chain: GQDTDGKEKSDEYELFTVEYCGTNCTQLENGSWTACTGKNGTCRCFHENDKKVGLCLSTEYTDFSEYPDPNSEEIKAASPLP
CXCL1_HUMAN
  % cells over threshold fluorescence: 66%
CXCL8_HUMAN [3]
  % cells over threshold fluorescence: 24%
CXCL12_HUMAN
  binding result: no binding (tested: 300 nM)
CXCL13_HUMAN
  binding result: no binding (tested: 300 nM)
CXCL9_HUMAN
  binding result: no binding (tested: 300 nM)

B9: P1128_IXORI (other)
chain: KDDEHFSVDYCGMNCTQQEDGSWTACSGRNEECRCYHESGKKNGLCLSTTYIDFSQYGNPSDSDIAAASPRP
CXCL8_HUMAN [3]
  % cells over threshold fluorescence: 53%
CXCL6_HUMAN
  binding result: no binding (tested: 300 nM)
CXCL12_HUMAN
  binding result: no binding (tested: 300 nM)
CXCL11_HUMAN [8]
  binding result: no binding (tested: 300 nM)
CXCL13_HUMAN
  binding result: no binding (tested: 300 nM)
CXCL9_HUMAN
  binding result: no binding (tested: 300 nM)
CXCL10_HUMAN [4]
  binding result: no binding (tested: 300 nM)
CXCL14_HUMAN
  binding result: no binding (tested: 300 nM)

B10: P942_IXORI (other)
chain: NQLSGPQSSANSNEAVFCDTNCTQGTDEAWSGCRGDCFCVYVGNSTEGRCMMLSGDFDYSTPGAED
CXCL11_HUMAN [1]
  % cells over threshold fluorescence: 37%
CXCL7_HUMAN
  binding result: no binding (tested: 300 nM)
CXCL8_HUMAN [2]
  binding result: no binding (tested: 300 nM)
CXCL12_HUMAN
  binding result: no binding (tested: 300 nM)
CXCL9_HUMAN
  binding result: no binding (tested: 300 nM)
CXCL14_HUMAN
  binding result: no binding (tested: 300 nM)

B11: P1127_IXORI (other)
chain: AGKDDEHFSVDYCGMNCTQQEDGSWTACSGRNGECRCYHESGKRSGLCLSTTYIDFSEYGNLSDSDIAAASPRLSMKESH
CXCL8_HUMAN [3]
  % cells over threshold fluorescence: 43%
CXCL12_HUMAN
  binding result: no binding (tested: 300 nM)
CXCL13_HUMAN
  binding result: no binding (tested: 300 nM)
CXCL9_HUMAN
  binding result: no binding (tested: 300 nM)
